This passage reports Kd and koff results from publication PMC7943567 (2021).

The target in assay [1] is UG2 fusion of the MET-binding peptide aMD5 (human). Briefly: SPR. (In general: Surface plasmon resonance follows binding to a sensor surface in real time, without labels.)
Assay [2] has as its target UG2 fusion of the MET-binding peptide aMD4 (human). Briefly: SPR.
The next assay addresses aMD4 (free peptide). As to the kind of experiment: SPR; value cited from earlier paper.
In another assay the target is aMD5 (free peptide). As to the kind of experiment: SPR; value cited from earlier paper.
The target in assay [3] is Fc proteins lasso-grafted with MET-binding peptides (SPR, Fig. 1c). As to the kind of experiment: SPR; aMD4 grafted on Fc; divalent, not true 1:1 affinity.
For assay [4], the target named is UG2-m6, single-chain tandem uteroglobin dimer with the PB1m6 peptide fused between two UG monomers (human, UniProt P11684). Briefly: SPR.
Assay [5] has as its target UG2 fusion of the PlxnB1-binding peptide PB1m7 (human). As to the kind of experiment: SPR.
Assay [6] has as its target UG2-m6A9, single-chain tandem uteroglobin dimer grafted with the affinity-matured m6A9 peptide (human, UniProt P11684). As to the kind of experiment: SPR.
The target of the next assay is PB1m6A9 (free peptide). Briefly: SPR; value cited from earlier paper.
Another assay concerns the target PB1m7 (free peptide). Briefly: SPR; value cited from earlier paper.
The target in assay [7] is T1, Fc proteins lasso-grafted with PlxnB1-binding peptides (SPR, Fig. 1c). As to the kind of experiment: SPR; PB1m6A9 grafted on Fc; divalent, not true 1:1 affinity.
In assay [8] the target is T1, Fc proteins lasso-grafted with …. As to the kind of experiment: SPR; PB1m7 grafted on Fc; divalent, not true 1:1 affinity.

B1: human MET ectodomain fragment (residues 1-931) with C-terminal biotin acceptor sequence (domain or fragment)
chain: ECKEALAKSEMNVNMKYQLPNFTAETPIQNVILHEHHIFLGATNYIYVLNEEDLQKVAEYKTGPVLEHPDCFPCQDCSSKANLSGGVWKDNINMALVVDTYYDDQLISCGSVNRGTCQRHVFPHNHTADIQSEVHCIFSPQIEEPSQCPDCVVSALGAKVLSSVKDRFINFFVGNTINSSYFPDHPLHSISVRRLKETKDGFMFLTDQSYIDVLPEFRDSYPIKYVHAFESNNFIYFLTVQRETLDAQTFHTRIIRFCSINSGLHSYMEMPLECILTEKRKKRSTKKEVFNILQAAYVSKPGAQLARQIGASLNDDILFGVFAQSKPDSAEPMDRSAMCAFPIKYVNDFFNKIVNKNNVRCLQHFYGPNHEHCFNRTLLRNSSGCEARRDEYRTEFTTALQRVDLFMGQFSEVLLTSISTFIKGDLTIANLGTSEGRFMQVVVSRSGPSTPHVNFLLDSHPVSPEVIVEHTLNQNGYTLVITGKKITKIPLNGLGCRHFQSCSQCLSAPPFVQCGWCHDKCVRSEECLSGTWTQQICLPAIYKVFPNSAPLEGGTRLTICGWDFGFRRNNKFDLKKTRVLLGNESCTLTLSESTMNTLKCTVGPAMNKHFNMSIIISNGHGTTQYSTFSYVDPVITSISPKYGPMAGGTLLTLTGNYLNSGNSRHISIGGKTCTLKSVSNSILECYTPAQTISTEFAVKLKIDLANRETSIFSYREDPIVYEIHPTKSFISGGSTITGVGKNLNSVSVPRMVINVHEAGRNFTVACQHRSNSEIICCTTPSLQQLNLQLPLKTKAFFMLDGILSKYFDLIYVHNPVFKPFEKPVMISMGNENVLEIKGNDIDPEAVKGEVLKVGNKSCENIHLHSEAVLCTVPNDLLKLNSELNIEWKQAISSTVLGKVIVQPDQNF
modifications: biotin on the biotin acceptor sequence (BirA-mediated)
In the case of B1, the Kd was determined as 211 nM in assay [1]; 91.6 nM in assay [2]; 2.4 nM with aMD4 (free peptide); 2.3 nM in the assay with aMD5 (free peptide); 4.5 nM in assay [3]. The koff was found to be 0.019 s⁻¹ in assay [1]; 0.004 s⁻¹ in assay [2]; 0.003 s⁻¹ with aMD4 (free peptide); 0.011 s⁻¹ with aMD5 (free peptide); 0.0007 s⁻¹ in [3].

B2: human PlxnB1 ectodomain fragment (residues 1-535) with C-terminal biotin acceptor sequence (domain or fragment)
chain: LQPLPPTAFTPNGTYLQHLARDPTSGTLYLGATNFLFQLSPGLQLEATVSTGPVLDSRDCLPPVMPDECPQAQPTNNPNQLLLVSPGALVVCGSVHQGVCEQRRLGQLEQLLLRPERPGDTQYVAANDPAVSTVGLVAQGLAGEPLLFVGRGYTSRGVGGGIPPITTRALWPPDPQAAFSYEETAKLAVGRLSEYSHHFVSAFARGASAYFLFLRRDLQAQSRAFRAYVSRVCLRDQHYYSYVELPLACEGGRYGLIQAAAVATSREVAHGEVLFAAFSSAAPPTVGRPPSAAAGASGASALCAFPLDEVDRLANRTRDACYTREGRAEDGTEVAYIEYDVNSDCAQLPVDTLDAYPCGSDHTPSPMASRVPLEATPILEWPGIQLTAVAVTMEDGHTIAFLGDSQGQLHRVYLGPGSDGHPYSTQSIQQGSAVSRDLTFDGTFEHLYVMTQSTLLKVPVASCAQHLDCASCLAHRDPYCGWCVLLGRCSRRSECSRGQGPEQWLWSFQPELGCLQ
modifications: biotin on the biotin acceptor sequence (BirA-mediated)
With B2, the Kd in [4] was 45.8 nM; in assay [5], 3250 nM; in assay [6], 8.26 nM; with PB1m6A9 (free peptide) it was 0.28 nM; with PB1m7 (free peptide) it was 275 nM; in assay [7] it was 0.023 nM. The affinity in assay [8], expressed as Kd, was 61.4 nM. Moreover, the koff in assay [4] amounted to 0.0041 s⁻¹; in [5] it was 0.051 s⁻¹; in assay [6] it was 0.0014 s⁻¹; in the assay with PB1m6A9 (free peptide) it was 0.0021 s⁻¹; in the assay with PB1m7 (free peptide), 0.01 s⁻¹; in assay [7], 0.0004 s⁻¹. For the same molecule, in [8], the koff was determined as 0.055 s⁻¹.

By Kd is commonly meant the free concentration of one partner at which half of the binding sites on the other are occupied at equilibrium, for simple one-to-one binding. Low readings indicate higher affinity, high ones lower affinity. As a reminder, the koff is the first-order rate constant of dissociation.
